In the assay the target is T1, Recombinant truncated human CD2 (human, UniProt P06729 25-209, limits assumed).
T1 construct: Bought; also called LFA2
T1 sequence (looked up): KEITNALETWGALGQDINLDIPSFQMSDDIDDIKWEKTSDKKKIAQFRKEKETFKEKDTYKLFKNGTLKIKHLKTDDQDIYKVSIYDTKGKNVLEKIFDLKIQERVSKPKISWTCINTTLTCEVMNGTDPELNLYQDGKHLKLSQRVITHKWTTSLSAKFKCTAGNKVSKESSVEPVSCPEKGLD
Nature of the assay: SPR (Biacore T200), IgG amine-coupled to CM5 chip, CD2 injected up to 5 nM, two-state model, 25 °C. As to the method: All interaction experiments were performed at 25° C. Recombinant truncated human CD2 (Sino Biological, Beijing, China) was diluted in two-fold dilution series with the highest concentration being 5 nM and injected for 180 seconds over immobilized IgG. After 15 minutes of dissociation, the sensor chip was regenerated by 30 seconds injection of 10 mM glycine pH 1.7. Sensorgrams from reference surfaces and blank injections were subtracted from the raw data prior to data analysis. A two-state (induced fit) interaction model was fitted to the data using T200 evaluation software v3.0 (Cytiva Life Sciences/Biacore, Uppsala, Sweden) to determine kinetic rate constants and affinities.
(In general: SPR reads the build-up and loss of mass on a sensor chip optically.)

B1: Siplizumab (humanized anti-CD2 IgG1κ) (antibody, V domains shown)
VH: QVQLVQSGAEVQRPGASVKVSCKASGYIFTEYYMYWVRQAPGQGLELVGRIDPEDGSIDYVEKFKKKVTLTADTSSSTAYMELSSLTSDDTAVYYCARGKFNYRFAYWGQGTLVTVSS
VL: DVVMTQSPPSLLVTLGQPASISCRSSQSLLHSSGNTYLNWLLQRPGQSPQPLIYLVSKLESGVPDRFSGSGSGTDFTLKISGVEAEDVGVYYCMQFTHYPYTFGQGTKLEIK
notes: also called MEDI-507; anti-CD2 Ab1
The term Kd denotes the concentration at which binding is half-saturated. On to B1, for which the dissociation constant Kd was found to be 1.2 nM.

B2: CD2-binding molecule 3 (FcS anti-CD2 IgG2) (antibody, V domains shown)
VH: QVQLVQSGAEVQRPGASVKVSCKASGYIFTEYYMYWVRQAPGQGLELVGRIDPEDGSIDYVEKFKKKVTLTADTSSSTAYMELSSLTSDDTAVYYCARGKFNYRFAYWGQGTLVTVSS
VL: DVVMTQSPPSLLVTLGQPASISCRSSQSLLHSSGNTYLNWLLQRPGQSPQPLIYLVSKLESGVPDRFSGSGSGTDFTLKISGVEAEDVGVYYCMQFTHYPYTFGQGTKLEIK
notes: Standard IgG2 framework with V234A, G237A, P238S, H268A, V309L, A330S, P331S; made in CHO-K1 cells
With B2, the Kd was determined as 0.9 nM.

B3: CD2-binding molecule 1 (a deglycosylated CD2-binding molecule) (antibody, V domains shown)
VH: QVQLVQSGAEVQRPGASVKVSCKASGYIFTEYYMYWVRQAPGQGLELVGRIDPEDGSIDYVEKFKKKVTLTADTSSSTAYMELSSLTSDDTAVYYCARGKFNYRFAYWGQGTLVTVSS
VL: DVVMTQSPPSLLVTLGQPASISCRSSQSLLHSSGNTYLNWLLQRPGQSPQPLIYLVSKLESGVPDRFSGSGSGTDFTLKISGVEAEDVGVYYCMQFTHYPYTFGQGTKLEIK
modifications: Fc N-glycan removed with EndoS2 (GlycINATOR)
notes: produced with GlycINATOR (EndoS2)
Consider B3, for which the equilibrium dissociation constant (Kd) is 1.2 nM.

B4: CD2-binding molecule 4 (FcS anti-CD2 IgG4) (antibody, V domains shown)
VH: QVQLVQSGAEVQRPGASVKVSCKASGYIFTEYYMYWVRQAPGQGLELVGRIDPEDGSIDYVEKFKKKVTLTADTSSSTAYMELSSLTSDDTAVYYCARGKFNYRFAYWGQGTLVTVSS
VL: DVVMTQSPPSLLVTLGQPASISCRSSQSLLHSSGNTYLNWLLQRPGQSPQPLIYLVSKLESGVPDRFSGSGSGTDFTLKISGVEAEDVGVYYCMQFTHYPYTFGQGTKLEIK
notes: Standard IgG4 framework with S228P, L235E, P329G; made in CHO-K1 cells
Regarding B4, the dissociation constant Kd is 1.4 nM.

B5: CD2-binding molecule 2 (Fc-silent (FcS) anti-CD2 IgG1) (antibody, V domains shown)
VH: QVQLVQSGAEVQRPGASVKVSCKASGYIFTEYYMYWVRQAPGQGLELVGRIDPEDGSIDYVEKFKKKVTLTADTSSSTAYMELSSLTSDDTAVYYCARGKFNYRFAYWGQGTLVTVSS
VL: DVVMTQSPPSLLVTLGQPASISCRSSQSLLHSSGNTYLNWLLQRPGQSPQPLIYLVSKLESGVPDRFSGSGSGTDFTLKISGVEAEDVGVYYCMQFTHYPYTFGQGTKLEIK
notes: IgG1 with LALA-PG mutations at equivalent sites in siplizumab; made in CHO-K1 cells; also called Fc-silent Siplizumab
On to B5, for which the Kd is 1.5 nM.

For the origin of these results see patent US20240270845A1 (ZELARION MALTA, published 2024).
